Data published in patent US10407712B2, “Methods, compositions and kits for high throughput kinase activity screening using mass spectrometry and stable isotopes” (President and Fellows of Harvard College, priority 2008, dated 2019).

What was measured:
activated, purified Akt = molecular target: T1, activated, purified Akt (Homo sapiens, UniProt P31749); test: In vitro peptide phosphorylation by purified Akt; type: biochemical; settings: 100 μM peptide, individually reacted
T1 construct: Purified human active kinases of Akt1 (full length); purchased Cell Signaling Technology (Danvers, Mass.)
Text: Reaction mixture was supplemented with 0.1% BSA. Other conditions were the same as in FIG. 10A.
Purified human active kinases of Akt1 (full length), extracellular signal-regulated kinase 1 (ERK1, 1-379), mitogen-activated protein kinase kinase 1 (MEK1, 1-393), 90 kDa ribosomal S6 kinases 1 (RSK1, 1-735), cAMP-dependent protein kinase (PKA) catalytic subunit-α (PKA Cα, 1-351), protein kinase Cα (PKCα, full length), epidermal growth factor (EGF) receptor (EGFR, 672-1210), platelet-derived growth factor (PDGF) receptor α (PDGFRα, 550-1090), vascular endothelial growth factor (VEGF) receptor 1 (VEGFR1 784-1338), Src (full length), casein kinase 2 (CK2, full length), Aurora A (1-403), AMP-activated protein kinase α1β1γ1 (AMPK α1β1γ1, full length), glycogen synthase kinase-3α (GSK-3α, 1-483) and MAP/microtubule affinity-regulating kinase 1 (MARK 1, full length) were obtained from Cell Signaling Technology (Danvers, Mass.). Cdc2/cyclin B1 (full length) and insulin-like growth factor (IGF)-I receptor (IGFIR, 959-1367) were obtained from Upstate (Temecula, Calif.).
Peptides were synthesized, purified and quantified as described in Yu et al. 2009 Proc Natl Acad Sci USA 106: 11606-11611, hereby incorporated by reference herein in its entirety. […] Alternatively, reactions were performed using 6 μg cell lysate aliquotes mixed to a final volume of 20 μl. […]

HEK293 cell lysates = test: Single-reaction 90-substrate KAYAK assay, HEK293 lysates with or without insulin; type: biochemical, human; settings: 5 μM each peptide, HEK293 lysate
Procedure: For stimulation of HEK293 cells or HeLa lines, cells were treated with insulin (100 nM; 10-30 min) EGF (50 ng/ml; 10 min) or phorbol 12-myristate 13-acetate (PMA; 50 or 100 ng/ml; 10 -30 min) at 37° C. for the indicated times after overnight serum-starvation.
Alternatively, cells were washed with PBS once and lysed with ice-cold lysis buffer, 10 mM potassium phosphate, pH 7.0, containing 0.5% NP-40, 0.1% Brij 35, 0.1% deoxycholic acid, 1 mM ethylenediaminetetraacetic acid (EDTA), 5 mM ethylene glycol tetraacetic acid (EGTA), 10 mM MgCl2, 50 mM β-glycerophosphate, 1 mM Na3VO4, 2 mM dithiothreitol (DTT) and protease inhibitor cocktail (Complete, Roche Applied Science, Indianapolis, Ind.). Homogenates were centrifuged at 10,000 rpm for 15 min at 4° C., and the supernatant was used as lysate. Protein concentration was quantified by a modified Bradford assay (Pierce).
Peptides were synthesized, purified and quantified as described in Yu et al. 2009 Proc Natl Acad Sci USA 106: 11606-11611, hereby incorporated by reference herein in its entirety. Each substrate peptide (250 pmol) was mixed to a final concentration of 5 μM in the 50 μL reaction mixture. Alternatively, reactions were performed using 6 μg cell lysate aliquotes mixed to a final volume of 20 μl. Cell lysate or other kinase source was added to the substrate mixture in 25 mM Tris-Cl, pH 7.5, containing 5 mM ATP, 7.5 mM MgCl2, 0.2 mM EGTA, 7.5 mM β-glycerophosphate, 0.1 mM Na3VO4, and 0.1 mM DTT. The reaction was incubated at 25° C. for 60 min and then terminated by the addition of 100 μl of 1% trifluoroacetic acid (TFA) containing a known amount of an internal standard (typically 20 pmol). Alternatively, the reaction was incubated at 20° C. for 45 min before termination with TFA.
Internal standard heavy peptides (5 pmol each) were added as a mixture to the terminated reactions followed by desalting with a solid phase extraction cartridge (SepPak tC18 (50 mg), Waters, Milford, Mass.). Phosphopeptides were enriched as described (Villen et al. 2008 Nat Protoc 3: 1630-1638). […]
For KAYAK analyses, phosphopeptides were dissolved in 5% FA and injected onto a 125-μm-internal diameter fused silica column packed with Magic C18 AQ material (Michrom Bioresources, Auburn, Calif.). Peptides were separated using a two-solvent system: solvent A (0.125% FA and 3% ACN in H2O), solvent B (0.125% FA in ACN) over 32 min gradient, and eluting peptides were directly analyzed using an LTQ-Orbitrap mass spectrometer (Thermo Scientific, San Jose, Calif.) equipped with the electron transfer dissociation option. […]

T1 sequence (P31749 whole entry): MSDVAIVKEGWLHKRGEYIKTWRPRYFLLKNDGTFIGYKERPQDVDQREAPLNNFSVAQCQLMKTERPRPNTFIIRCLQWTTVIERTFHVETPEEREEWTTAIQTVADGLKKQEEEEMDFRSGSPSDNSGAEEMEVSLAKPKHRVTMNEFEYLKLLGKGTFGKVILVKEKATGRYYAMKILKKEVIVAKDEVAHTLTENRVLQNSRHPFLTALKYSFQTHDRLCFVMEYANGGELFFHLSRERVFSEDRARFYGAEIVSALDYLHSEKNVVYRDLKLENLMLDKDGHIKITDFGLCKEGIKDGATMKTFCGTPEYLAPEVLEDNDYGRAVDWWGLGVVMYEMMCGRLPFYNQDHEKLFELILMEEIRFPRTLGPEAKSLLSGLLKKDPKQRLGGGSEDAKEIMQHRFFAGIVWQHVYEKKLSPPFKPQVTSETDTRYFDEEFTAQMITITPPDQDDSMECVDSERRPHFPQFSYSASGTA

Sequence: RIRTQSFSLQPFR (The sequence was designed and synthesized) [F6]
- phosphorylation by Akt (activated, purified Akt): strong phosphorylation
- phosphorylation in response to insulin stimulation (HEK293 cell lysates): increased phosphorylation
